assay: yeast display, Sf9 membrane polyspecificity reagent, FACS + sequencing; frameworks hold sequencing errors
In short: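 Genes from sorted yeast were amplified by colony PCR, read by MiSeq 2 × 250 sequencing and filtered on CDR length. These cells carried a synthetic nanobody library in Saccharomyces cerevisiae BJ5465 and were sorted by FACS into low and high (top ~1%) gates on anti-HA and streptavidin fluorescence. Polyreactivity is labelled according to the gate of origin.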

Row | Sequence | polyreactivity (PSR sort gate)
1 | QVQLVESGGCLVQAGGSLRLSGAASGSISYRNSMGWYRQAPGKERELVAAISSRGGSTFYADSEKGRFTISRDNAKNTVYLQMNSLKPEDTAVYYCAARGYHRFKNVNYWGQGTQVTVSS | high polyreactivity
2 | QVQLVESGGGLVQAGGSLRLSCAASGSTFGSYGMGWYRQAPGKERELVAVITYSGDRTYYADSVKGRFTISRDNAKNTVYLQMNSLKPEDTAVYYCAADRSYRVSEYDYWGQGTQVTVSS | low polyreactivity
3 | QVQLVESGGGLVQAGGSLRLSCAASGSTFATYAMGWYRQAPGKERELVAAITRSGGITYYADSVKGRFTISRDNAKNTVYLQMNSLKPEDNAVYYCAKQYKWYGSRFYYWGQGTQVTVSS | high polyreactivity
4 | QAQLQESRGSVVQAGLGLRLSCAASGYISVGSVMGWYRQAPSKERELVASIDQGANTNYADSVKGRFTISRDNAKNNVYLQMISLKPEDTEVYYCATETTYILNYWGQGSQVTVSS | low polyreactivity
5 | QVQLVESGGGLDQAGGSLRLSCAASGSTFVANAMGWYRQAPGKERELVAAITYRGGSTYYADSVKGRFTISRDNAKNSVYLQMNSLKPEDTAVYYCNTVYYVASASYYWRYDYWGQGTQVTVSS | high polyreactivity
6 | QDQLVESGGGLVQAGGSLRLSCAASGGIFYQYAMGWYRQAPGKERELVATITSGGRTSYADSVKGRFTISRDNAKNTFYLQMNSLNPEDTAVYYCAATTGWYGARYGYWGQGTQVTVSS | high polyreactivity
7 | QVQLVESGGGLVQAAGSLRLSCAASVIIFGLYTMGWYRQAPGKERELVAAISDSGGRTYYADSVKGRFTISLDNAKNTVFLQMNSLKPEDTAVYYCAAEFWYVWEYNYWGQGTQVTVSS | high polyreactivity
8 | QVQLVESGGGLVQAGGSLRLSCAASGITITRYDMGWYRQAPGKERELVAAINWSGGRTYYADSVKGRFTISRDNAKYTVYLQMNSLKPEDTAVYYCNRALKYRRRDYWGQGTQVTVSS | high polyreactivity
9 | QVQLVESGGGLVQAGGSLRLSCAASGNIFLYYAMGWYRQAPGKERELVARIDSGGSTYYADSVKGRFTISRDNAKNTVYLQMNSLKPEDTAVYYCATDEGTVGGQQLRPLMDYWGQGTQVTVSS | low polyreactivity
10 | QVQLVESGGGLVQAGGSLRLSCAASGYIFTYTMGWYRQAPGKERELVAAISKSGGSTYYADSVKGRFTLSRDNAKNTVYLQMNSLKPEDTAVYYCARRGRYYLYTDDYDYWGQGTQVTVSS | high polyreactivity
11 | QVQLVESGGGLVQAGGSLRLSCAASGSISAVNTMGWYRQAPGKERELVATISYSTASTYYADSVKGRFTISRDNAKITVYLQMNCLKPEDTAVYFCAADAYFDTWYDYWGQGTQVTVSS | low polyreactivity
12 | QVQLHESGGGLEQAGGSLRLSCAASGYISDIGTMGWYRQAPGKEREFVATIVVGSTTNYADSVKGRFTISRDNAKNSVYLQPESGRYRGVLLRGWLLAVGKFTYWGQGTQETVSS | low polyreactivity
13 | QDQHVESGGGLVQAGGSLRLSCAASGRIFFHNAMGWSRQAPGKERELVAAIRSSTGSTYYADSVKGRFTISRDNAKNTVYLQMNSLKPEDTAVYYCARYAYANAYYGKSYWMGYWGQGTQVTVSS | high polyreactivity
14 | QVQLVESGGGLVQAGGSLRLSCAASGSIFWGYAMGWYRQAPGKERELVAAIRNGGSTNYADSVKGRFTISRDNAKNTVYLQMNSLKPEDTAVYYCAKYYYYLRSARKYDYWGQGTQVTVSS | high polyreactivity
15 | QVQLVESGGGLFQAGGSLRLSCAASGLTFYIYAMGWYRQAPGKEREFVAAIRRSGGRTYYADSVKGRFTISRDNAKNTVYLQMNSLKPEDTAVYYCNRYTQYRDRSDNHWGQGTQVTVSS | high polyreactivity
16 | QVQLVESGGGLVQAGGSLRLSCAASGIIFRLYAMGWYRQAPGKERELVAAISSGGSTYADSVKGRFTISRDNAKNTVYFQMNSLKPEDTAVYYCAAGRVWHLYWYNYWGQGTQVTVSS | high polyreactivity
17 | QVQLVESGGGLVQAGGSLRLSCAASGITFDTYAMGCYIQAPGKERELVAAISKSGGSTYYADSVKGRFTISRDNAKNTVYLQMNSLKPEDTAVYYCNARYRNSGRYWDWYYYWGQGTQVTVSS | high polyreactivity
18 | QVQLEESGGGLVQAGGSLRLSCAASGRPCWLMLWDGIDRRLGKKGSWLPLTASTYYADSVKGRFTISRDNAKNTVYLQMNSLKPEDTAVYYCAADLYYGDYRTLPIADEYDYWGQGTQVTVSS | low polyreactivity
19 | QVQLVESGGGLVQAGGSLRLICAASGSTFEYSTMGWYRPAPGKERELVAAINSSGGRTYYADSVKGRFTISRDNAKNTVYLQMNSLKPEDTAVYYCNARWRSGPRAYDYWGQGTQVTLSS | high polyreactivity
20 | QVQLVESGGGLDQAGGSLRLSCAASGNTFFWPNAMGWYRQAPGKERELFAGISYRGASTYYADSVKGRFTISRDNAKNTVYLQMNSLKPEDTAVYYCAADNTPRGRRQNRDMYYWGQGTQVTVSS | high polyreactivity
21 | QVQLVESGGGLVQAGGSLRLSCAASGSIFGAYAMGWYRQAPGKERELVAVISRSGGRTYYADSVKGRFTISRDNAKNTVYLQMNSLKPEDTAVYYCAASYPVPPYGMDYWGQGTQVTVSS | high polyreactivity
22 | QVQLVESGGGLVQAGGSLRLSCAASGYIFYYNGMGWYRQAPGKERELVAVISRRGGSTYYADSVKGRFTISRDNAKNTVYLQMNSLKPEDTAVYYCNARARSSRTYKYDYWGQGTQVTVSS | high polyreactivity

Row | Sequence | polyreactivity (PSR sort gate)
23 | QVHLVESGGGLVQAGGSLRLSCAASGSTIRAYAMGWNRQAHVKERELVAAISYSGDSTYYADSVKGRFTISRDNAKNTVYLQMNSLKPEDTAVYYCAADYSYRHYEYDYWGQGTQVSVSS | low polyreactivity
24 | QVQLVESGGGLVQAGGSLRLSCAASGLIFRRYAMGWYRTAPGKERELVAAISSSGSTYYADSVKGRFTISRDNAKNTVYLQMNSLKPEDTAVYYCNKVTGRNADRYGYWGQGTQVTVSS | high polyreactivity
25 | QVQLVESGGGLVQAGGSLRLSCAASGFIFQYYAMGWYRQAPGKERELVAAITPSGTSTYYADSVKGRFTISRDNAKNTVYLQMNSLKPEDTAVYYCAVRYYFVDFHSTTGYPYSYDYWGQGTQVTVSS | low polyreactivity
26 | QVQLVESGGGIVQAGGSLRLSWAASGSINYRNARGCYRQAPGKERELVAAISSDGSTNYADSVKGRFTISRDNAKNTVYLQMNRLKPEDTAVYSCASPWTQILDYWGKGTQVTVSS | low polyreactivity
27 | QVQLVESGGGLVQAGGSLRLSCAASGRIFSYNAMGWYRQAPGKERELVAAITSSGSTYADSVKVRFTISRDNAKNTVYLQMNSLKPEDTAVYYCASYYNWSGHYYWGQGTQVTVSS | low polyreactivity
28 | QVQLVESGGGLVQAGGSLRISCAASGSILDGNAMGLYRQAPGKERELFAGISESDGSTNYADSVKGRFTISRDNAKNTVYLQMNSLNPEDTAVYYCAADIWTCGDIPYDYWGQGTQVTVSS | low polyreactivity
29 | QVQLVESGGGIVQAGGSLRLSCAASGSTFGGNAMGWYRQAPGKERELVAAITSGTGTHYADSVKGRFTISRDNAKNTVYLQMNSLKPEATAVYFCAAEVWSWAGIWGYEYWGQGTQVSVSS | low polyreactivity
30 | QVQLEESGGGLVQAGGSLRLSCAASGRTFYHYAMGWYRQAPGKERELVAGITDGTITTDADSVKGRFTISRDNAKNTVYLQMNSLKPEDTAVYYCNVGYSDWWRSWAMDYWGQGTQVTVSS | high polyreactivity
31 | QVQLVESGGGLVQAGGSLRLSCAASGSIFVTYAMGWYRQAPGKERELVAAITWNGGSTYYADSVKGRFTISRDNAKNTVYLQMNSLKPEDTAVYYCAADSRYRGNYWGQGTQVTVSS | high polyreactivity
32 | QVQLVESGGGLVQAGGSLRLSCAASGSTFRSYTRGWYRQAPGKERELVAAIRKSGVRTYYADSVKGRFTISRDNAKNTVYLQMNSLKPEDTAVYYCNRPKWYDGDYWGQGTEVTVSS | high polyreactivity
33 | QVQLVESGGGLVQAGGSLRLSCAASGSTFSLNAIGWFRQAPGKERQLVAAITGRGTRTYYADSVKGRFTLSRDNAKNTVYLQMNSLKPEDTAVYYCAKDYPRGSPYGYNYWGQGTQVTVSS | high polyreactivity
34 | QVQLVESGGGLVQAGGSLRLICAASGNTFNFYAMGSYRQAPGKERELVAGISGSNTYYADSVKGRFTISRDNAKNTVYLQMNSLKPEDTAVYYCAKRAIWRYGYWGQGTQVTVSS | high polyreactivity
35 | QVHLVESCGGLVQAGGSLRLSCAASGFTFYTYTMGWYRQAPGKERELVAVISRSGGSTYYADSVKGRFTISRDNAKNTVYLQMNSLKPEDTAVYYCNAGYWRFIDSYDYWGQGTQVTVSS | high polyreactivity
36 | QVQLVESGGGLVQAGGSLRLSCAASGSTFVSYAMGWYRQAPGKEREFVAAITWSGGSTYYADSVKGRFTISRDNAKNTVYLQMNRLKPEDTAVYYFARPYRGSPRYYYWGQGTQVTVSS | high polyreactivity
37 | QVQLVESGGGLVQAGGSLRLSCAASGINFVGYAMGWYRQAPGKERELVAAISTSSRTYYADSVKGRFTISRDNAKITVYLHMNSLKPDDTAVYYCNARGTRWYYRHDYWGQGTQVTVSS | high polyreactivity
38 | QVQLVESGGGLVQAGRSLRLSCAASGRTFVFNAMGWYRQAPGKERELVARITLSGGSTYYADSVKGRFTISRDNAKNTVYLQMNSLKPEDTAVYYCAASHYFWFVQNDSDYWGQGTQVTVSS | low polyreactivity
39 | QVQLVESGGGLVQAGGSLRLSCAASGFTLAYYAMGWYRQAPGKERELVAAITADTGTTYYADSVKGRFTISRDNAKNTVYLQMNSLKPEDTAVYYCATRDVFYEDDYWGQGTQVTVSS | high polyreactivity
40 | QVQLVESGGGLVQAGGSLRLSWAASGFTLTRNAMGWYTQAPGKERELVAAISWSGGTTYYADSVKGRFTISRDNAKNPVYLQMNSLKRDDTAVYYCNTASWRAQYYYWGQGTRVTVSS | high polyreactivity
41 | QVQLVESGGGLVQAGGSLRLSCAASGSTSRIYAMGWYRQAPGKERELVAAITRSGGSTYYADSVKGRFTISRDNAKNTVYLQMNSLKPEDTAVYYCAADYRSHSRYRYDKVDYWGQGTQVTVSS | high polyreactivity
42 | QVHLVESGGGLVQAGGSLRLSCAASGSIFGYNTMGWYRQAPGKERELVATISGSGGSSYYADSVKGRFTISRDNAKNTVYLQMNSLKPEDTSVYYCAARAYSRYRRTYDYWGQGTQVTVSS | high polyreactivity
43 | QVQLVESGGGLVQAGGSLRLSCAASGSIFPVYAMGWYRQAPGKERELVAAINSSGGTTYYADSVKGRFTISRDNAKNTVYLQMNSLKPEDTAVYYCAAEISTASYFAKTYDYWGQGTQVTVSS | low polyreactivity

Reference: the nanobody polyreactivity screen of Harvey et al. (2022)
